In series [1] the test system is HeLa Kyoto. The series can be described thus: thermal stability score vs G1/S (z-score of summed log2 fold changes over temperatures); higher = more thermally stable than in G1/S.
The subject of series [2] is HeLa Kyoto. The series can be described thus: solubility in G1/S (NP-40 vs SDS abundance) (log2 ratio); higher = more soluble. The following applies: cell cycle stage: G1/S.
For series [3], the system named is HeLa Kyoto. The series can be described thus: melting temperature (median over replicates), in situ; higher = more thermally stable.
For series [4], the system named is HeLa Kyoto. The series can be described thus: solubility change mitosis vs G1/S (difference of NP-40 vs SDS log2 ratios) (log2 ratio difference); higher = more soluble in mitosis.
[5] abbreviates: cell cycle stage: early G1 (4.5 h after nocodazole release).
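Wherever melting temperature (median over replicates), in situ is given: HeLa Kyoto cells synchronized by double thymidine or nocodazole block, proteins quantified by TMT10plex mass spectrometry, three independent biological replicates.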
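Wherever solubility change mitosis vs G1/S (difference of NP-40 vs SDS log2 ratios) is given: synchronized HeLa Kyoto cells (double thymidine block for G1/S, nocodazole release for mitosis), protein amounts in NP-40 versus SDS lysates quantified by mass spectrometry, three biological replicates.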
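Wherever solubility in G1/S (NP-40 vs SDS abundance) is given: HeLa Kyoto cells arrested at G1/S by double thymidine block, proteins quantified by TMT10plex mass spectrometry in mild NP-40 versus SDS extracts, three biological replicates.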
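Wherever thermal stability score vs G1/S (z-score of summed log2 fold changes over temperatures) is given: synchronized HeLa Kyoto cells, proteins quantified by TMT10plex mass spectrometry, three biological replicates, mitosis taken 0.5 h after nocodazole release, G1/S directly after double thymidine block.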

For “MNAGSDPVVIVSAARTIIGSFNGALAAVPVQDLGSTVIKEVLKRATVAPEDVSEVIFGHVLAAGCGQNPVRQASVGAGIPYSVPAWSCQMICGSGLKAVCLAVQSIGIGDSSIVVAGGMENMSKAPHLAYLRTGVKIGEMPLTDSILCDGLTDAFHNCHMGITAENVAKKWQVSREDQDKVAVLSQNRTENAQKAGHFDKEIVPVLVSTRKGLIEVKTDEFPRHGSNIEAMSKLKPYFLTDGTGTVTPANASGINDGAAAVVLMKKSEADKRGLTPLARIVSWSQVGVEPSIMGIGPIPAIKQAVTKAGWSLEDVDIFEINEAFAAVSAAIVKELGLNPEKVNIEGGAIALGHPLGASGCRILVTLLHTLERMGRSRGVAALCIGGGMGIAMCVQRE [ACAT2]”, the thermal stability score in the series with HeLa Kyoto [1] (setting [5]) was -0.261; in the series on HeLa Kyoto [1] (cell cycle stage: mitosis), -1.17. In the series on HeLa Kyoto [2], the “solubility in G1/S (log2)” value came to 0.305. Besides, the melting temperature is 58.4 °C in the series with HeLa Kyoto [3] (cell cycle stage: G1/S) and 58.2 °C in the series with HeLa Kyoto [3] (cell cycle stage: mitosis). In addition, in the series with HeLa Kyoto [4], the “solubility change mitosis (log2)” value is -0.0395.
Turning to “MNEVSVIKEGWLHKRGEYIKTWRPRYFLLKSDGSFIGYKERPEAPDQTLPPLNNFSVAECQLMKTERPRPNTFVIRCLQWTTVIERTFHVDSPDEREEWMRAIQMVANSLKQRAPGEDPMDYKCGSPSDSSTTEEMEVAVSKARAKVTMNDFDYLKLLGKGTFGKVILVREKATGRYYAMKILRKEVIIAKDEVAHTVTESRVLQNTRHPFLTALKYAFQTHDRLCFVMEYANGGELFFHLSRERVFTEERARFYGAEIVSALEYLHSRDVVYRDIKLENLMLDKDGHIKITDFGLCKEGISDGATMKTFCGTPEYLAPEVLEDNDYGRAVDWWGLGVVMYEMMCGRLPFYNQDHERLFELILMEEIRFPRTLSPEAKSLLAGLLKKDPKQRLGGGPSDAKEVMEHRFFLSINWQDVVQKKLLPPFKPQVTSEVDTRYFDDEFTAQSITITPPDRYDSLGLLELDQRTHFPQFSYSASIRE [AKT2]”, the thermal stability score in the series with HeLa Kyoto [1] (setting [5]) was 1.03; with HeLa Kyoto [1] (cell cycle stage: mitosis), 0.619. In the series on HeLa Kyoto [2], the “solubility in G1/S (log2)” value is -0.0498. Besides, the melting temperature amounted to 50.5 °C in the series on HeLa Kyoto [3] (cell cycle stage: G1/S) and 50.2 °C in the series with HeLa Kyoto [3] (cell cycle stage: mitosis). In the series on HeLa Kyoto [4], the “solubility change mitosis (log2)” value was -0.26.
For the sequence “MNGEADCPTDLEMAAPKGQDRWSQEDMLTLLECMKNNLPSNDSSKFKTTESHMDWEKVAFKDFSGDMCKLKWVEISNEVRKFRTLTELILDAQEHVKNPYKGKKLKKHPDFPKKPLTPYFRFFMEKRAKYAKLHPEMSNLDLTKILSKKYKELPEKKKMKYIQDFQREKQEFERNLARFREDHPDLIQNAKKSDIPEKPKTPQQLWYTHEKKVYLKVRPDATTKEVKDSLGKQWSQLSDKKRLKWIHKALEQRKEYEEIMRDYIQKHPELNISEEGITKSTLTKAERQLKDKFDGRPTKPPPNSYSLYCAELMANMKDVPSTERMVLCSQQWKLLSQKEKDAYHKKCDQKKKDYEVELLRFLESLPEEEQQRVLGEEKMLNINKKQATSPASKKPAQEGGKGGSEKPKRPVSAMFIFSEEKRRQLQEERPELSESELTRLLARMWNDLSEKKKAKYKAREAALKAQSERKPGGEREERGKLPESPKRAEEIWQQSVIGDYLARFKNDRVKALKAMEMTWNNMEKKEKLMWIKKAAEDQKRYERELSEMRAPPAATNSSKKMKFQGEPKKPPMNGYQKFSQELLSNGELNHLPLKERMVEIGSRWQRISQSQKEHYKKLAEEQQKQYKVHLDLWVKSLSPQDRAAYKEYISNKRKSMTKLRGPNPKSSRTTLQSKSESEEDDEEDEDDEDEDEEEEDDENGDSSEDGGDSSESSSEDESEDGDENEEDDEDEDDDEDDDEDEDNESEGSSSSSSSSGDSSDSDSN [UBTF]”, the results for the thermal stability score in the series on HeLa Kyoto [1] (setting [5]) and with HeLa Kyoto [1] (cell cycle stage: mitosis) were 8.89 and 15.5, respectively. Moreover, in the series with HeLa Kyoto [2], the “solubility in G1/S (log2)” value was -1.89. In addition, the melting temperature with HeLa Kyoto [3] (cell cycle stage: G1/S) came out at 47.2 °C. Moreover, the “solubility change mitosis (log2)” value in the series on HeLa Kyoto [4] is 0.149.
As to “MNGTLDHPDQPDLDAIKMFVGQVPRTWSEKDLRELFEQYGAVYEINVLRDRSQNPPQSKGCCFVTFYTRKAALEAQNALHNMKVLPGMHHPIQMKPADSEKNNAVEDRKLFIGMISKKCTENDIRVMFSSFGQIEECRILRGPDGLSRGCAFVTFTTRAMAQTAIKAMHQAQTMEGCSSPMVVKFADTQKDKEQKRMAQQLQQQMQQISAASVWGNLAGLNTLGPQYLALYLQLLQQTASSGNLNTLSSLHPMGGLNAMQLQNLAALAAAASAAQNTPSGTNALTTSSSPLSVLTSSGSSPSSSSSNSVNPIASLGALQTLAGATAGLNVGSLAGMAALNGGLGSSGLSNGTGSTMEALTQAYSGIQQYAAAALPTLYNQNLLTQQSIGAAGSQKEGPEGANLFIYHLPQEFGDQDLLQMFMPFGNVVSAKVFIDKQTNLSKCFGFVSYDNPVSAQAAIQSMNGFQIGMKRLKVQLKRSKNDSKPY [CELF1]”, the figures for the thermal stability score with HeLa Kyoto [1] (setting [5]) and in the series on HeLa Kyoto [1] (cell cycle stage: mitosis) were 1.56 and 2.85, respectively. Also, the “solubility in G1/S (log2)” value with HeLa Kyoto [2] was 0.269. Also, the melting temperature turned out to be 47.5 °C in the series with HeLa Kyoto [3] (cell cycle stage: G1/S) and 48.1 °C in the series on HeLa Kyoto [3] (cell cycle stage: mitosis). In addition, the “solubility change mitosis (log2)” value in the series with HeLa Kyoto [4] is -0.0537.
With “MNHLNVLAKALYDNVAESPDELSFRKGDIMTVLEQDTQGLDGWWLCSLHGRQGIVPGNRLKILVGMYDKKPAGPGPGPPATPAQPQPGLHAPAPPASQYTPMLPNTYQPQPDSVYLVPTPSKAQQGLYQVPGPSPQFQSPPAKQTSTFSKQTPHHPFPSPATDLYQVPPGPGGPAQDIYQVPPSAGMGHDIYQVPPSMDTRSWEGTKPPAKVVVPTRVGQGYVYEAAQPEQDEYDIPRHLLAPGPQDIYDVPPVRGLLPSQYGQEVYDTPPMAVKGPNGRDPLLEVYDVPPSVEKGLPPSNHHAVYDVPPSVSKDVPDGPLLREETYDVPPAFAKAKPFDPARTPLVLAAPPPDSPPAEDVYDVPPPAPDLYDVPPGLRRPGPGTLYDVPRERVLPPEVADGGVVDSGVYAVPPPAEREAPAEGKRLSASSTGSTRSSQSASSLEVAGPGREPLELEVAVEALARLQQGVSATVAHLLDLAGSAGATGSWRSPSEPQEPLVQDLQAAVAAVQSAVHELLEFARSAVGNAAHTSDRALHAKLSRQLQKMEDVHQTLVAHGQALDAGRGGSGATLEDLDRLVACSRAVPEDAKQLASFLHGNASLLFRRTKATAPGPEGGGTLHPNPTDKTSSIQSRPLPSPPKFTSQDSPDGQYENSEGGWMEDYDYVHLQGKEEFEKTQKELLEKGSITRQGKSQLELQQLKQFERLEQEVSRPIDHDLANWTPAQPLAPGRTGGLGPSDRQLLLFYLEQCEANLTTLTNAVDAFFTAVATNQPPKIFVAHSKFVILSAHKLVFIGDTLSRQAKAADVRSQVTHYSNLLCDLLRGIVATTKAAALQYPSPSAAQDMVERVKELGHSTQQFRRVLGQLAAA [BCAR1]”, the thermal stability score in the series on HeLa Kyoto [1] (setting [5]) was determined as 0.46; with HeLa Kyoto [1] (cell cycle stage: mitosis) it was 2.67. In the series with HeLa Kyoto [2], the “solubility in G1/S (log2)” value turned out to be 0.471. Besides, the melting temperature is 49.1 °C in the series with HeLa Kyoto [3] (cell cycle stage: G1/S) and 49.4 °C in the series on HeLa Kyoto [3] (cell cycle stage: mitosis). For the same sequence, the “solubility change mitosis (log2)” value in the series on HeLa Kyoto [4] came to 0.0584.

Source of the values: the supplement of paper PMC5998384.
